Patent US20240270821A1, “GIP/GLP1/GCG TRI-RECEPTOR AGONISTS AND USES THEREOF” (priority 2023, published 2024)

T1: human GIP receptor (human) (UniProt P48546)
T1 sequence (looked up): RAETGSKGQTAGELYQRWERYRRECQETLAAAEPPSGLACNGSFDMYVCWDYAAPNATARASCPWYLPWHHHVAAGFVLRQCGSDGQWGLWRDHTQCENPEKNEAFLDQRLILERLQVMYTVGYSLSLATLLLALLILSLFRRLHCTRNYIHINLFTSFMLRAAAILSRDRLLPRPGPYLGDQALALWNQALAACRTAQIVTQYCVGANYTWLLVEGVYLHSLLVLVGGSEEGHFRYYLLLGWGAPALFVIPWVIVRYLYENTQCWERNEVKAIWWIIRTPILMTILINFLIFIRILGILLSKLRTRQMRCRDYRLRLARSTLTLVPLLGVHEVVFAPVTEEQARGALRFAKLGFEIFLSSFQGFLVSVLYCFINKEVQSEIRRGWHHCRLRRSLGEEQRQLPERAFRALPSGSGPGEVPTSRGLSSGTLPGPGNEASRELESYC

B1: Example 994 (peptide)
chain: YXQGTFTSDXSXXLDXKAQXXFIEXLIAGGPSSGAPPPSGSEE
modifications: Lys acylated with (γGlu)2-C18 diacid; non-natural residues; C-amide; synthetic construct; SITE 2: note = 2-Aminoisobutyric Acid; SITE 10: note = 3-(4-Pyridyl)-L-alanine; SITE 12: note = L-ornithine; SITE 13: note = alpha-methyl-leucine; SITE 16: note = L-ornithine; SITE 17: note = Lysine is chemically modified through conjugation of the epsilon-amino group of the Lys
B2: Example 993 (peptide)
chain: YXQGTFTSDXSXXLDXKAQXEFIEXLIAGGPSSGAPPPSGSEE
modifications: non-natural residues; lipidated Lys (γGlu)2-C18 diacid; C-term amide; synthetic construct; SITE 2: note = 2-Aminoisobutyric Acid; SITE 10: note = 3-(4-Pyridyl)-L-alanine; SITE 12: note = L-ornithine; SITE 13: note = alpha-methyl-leucine; SITE 16: note = L-ornithine; SITE 17: note = Lysine is chemically modified through conjugation of the epsilon-amino group of the Lys
B3: Example 973 (peptide)
chain: YXQGTFTSDXSXXLDXKAQXEFIEXLIEGGPSSGAPPPSGSEE
modifications: Aib, 4Pal, Orn, Me4Pal, αMeY; acylated lysine; amide; synthetic construct; SITE 2: note = 2-Aminoisobutyric Acid; SITE 10: note = 3-(4-Pyridyl)-L-alanine; SITE 12: note = L-ornithine; SITE 13: note = alpha-methyl-leucine; SITE 16: note = L-ornithine; SITE 17: note = Lysine is chemically modified through conjugation of the epsilon-amino group of the Lys
B4: Example 996 (peptide)
chain: YXQGTFTSDXSXXLDXKAQXEFIEXLLAGGPSSGAPPPSGSEE
modifications: acylated lysine (γ-Glu)2 C18 diacid; non-natural residues; C-terminal amide; synthetic construct; SITE 2: note = 2-Aminoisobutyric Acid; SITE 10: note = 3-(4-Pyridyl)-L-alanine; SITE 12: note = L-ornithine; SITE 13: note = alpha-methyl-leucine; SITE 16: note = L-ornithine; SITE 17: note = Lysine is chemically modified through conjugation of the epsilon-amino group of the Lys
B5: Example 981 (peptide)
chain: YXQGTFTSDXSXXLDKKAQXAFIEYLIAGGPSSGEPPPSGTEE
modifications: synthetic construct; SITE 2: note = 2-Aminoisobutyric Acid; SITE 10: note = 3-(4-Pyridyl)-L-alanine; SITE 12: note = L-ornithine; SITE 13: note = alpha-methyl-leucine; SITE 17: note = Lysine is chemically modified through conjugation of the epsilon-amino group of the Lysine side chain with (gamma-Gl)
B6: Example 985 (peptide)
chain: YXQGTFTSDXSXXLDXKAQXAFIEYLIAGGPSSGEPPPSGTEE
modifications: non-natural residues, acylated Lys, C-terminal amide; synthetic construct; SITE 2: note = 2-Aminoisobutyric Acid; SITE 10: note = 3-(4-Pyridyl)-L-alanine; SITE 12: note = L-ornithine; SITE 13: note = alpha-methyl-leucine; SITE 16: note = L-ornithine; SITE 17: note = Lysine is chemically modified through conjugation of the epsilon-amino group of the Lys
B7: Example 972 (peptide)
chain: YXQGTFTSDXSXXLDXKAQXQFIEXLIEGGPSSGAPPPSGSEE
modifications: non-natural residues; (γGlu)2-C18 diacid on Lys; C-terminal amide; synthetic construct; SITE 2: note = 2-Aminoisobutyric Acid; SITE 10: note = 3-(4-Pyridyl)-L-alanine; SITE 12: note = L-ornithine; SITE 13: note = alpha-methyl-leucine; SITE 16: note = L-ornithine; SITE 17: note = Lysine is chemically modified through conjugation of the epsilon-amino group of the Lys
B8: Example 974 (peptide)
chain: YXQGTFTSDXSXXLDXKAQXXFIEXLIEGGPSSGAPPPSGSEE
modifications: Aib, 4Pal, Orn, Me4Pal, alpha-methyl-Tyr, lipidated Lys, amide; synthetic construct; SITE 2: note = 2-Aminoisobutyric Acid; SITE 10: note = 3-(4-Pyridyl)-L-alanine; SITE 12: note = L-ornithine; SITE 13: note = alpha-methyl-leucine; SITE 16: note = L-ornithine; SITE 17: note = Lysine is chemically modified through conjugation of the epsilon-amino group of the Lys
B9: Example 975 (peptide)
chain: YXQGTFTSDXSXXLDXKAQXQFIEXLLEGGPSSGAPPPSGSEE
modifications: non-natural residues; acylated Lys; C-terminal amide; synthetic construct; SITE 2: note = 2-Aminoisobutyric Acid; SITE 10: note = 3-(4-Pyridyl)-L-alanine; SITE 12: note = L-ornithine; SITE 13: note = alpha-methyl-leucine; SITE 16: note = L-ornithine; SITE 17: note = Lysine is chemically modified through conjugation of the epsilon-amino group of the Lys
B10: Example 966 (peptide)
chain: YXQGTFTSDXSXXLDKKAQXAFIEXLIEGGPSSGAPPPSGSE
modifications: acylated Lys (γGlu)2-C18 diacid; non-natural residues; C-terminal amide; synthetic construct; SITE 2: note = 2-Aminoisobutyric Acid; SITE 10: note = 3-(4-Pyridyl)-L-alanine; SITE 12: note = L-ornithine; SITE 13: note = alpha-methyl-leucine; SITE 17: note = Lysine is chemically modified through conjugation of the epsilon-amino group of the Lysine side chain with (gamma-Gl)
B11: Example 984 (peptide)
chain: YXQGTFTSDXSXXLDXKAQXAFIEYLIAGGPSSGEPPPSGTE
modifications: Aib, 4Pal, Orn, αMeL, Me4Pal; (γGlu)2-C18 diacid on Lys; amide; synthetic construct; SITE 2: note = 2-Aminoisobutyric Acid; SITE 10: note = 3-(4-Pyridyl)-L-alanine; SITE 12: note = L-ornithine; SITE 13: note = alpha-methyl-leucine; SITE 16: note = L-ornithine; SITE 17: note = Lysine is chemically modified through conjugation of the epsilon-amino group of the Lys
B12: Example 988 (peptide)
chain: YXQGTFTSDXSXXLDKKAQXAFIEXLIEXGPSSGEPPPSGSE
modifications: non-natural residues; Lys acylated AEEA-(γGlu)2-C18 diacid; C-terminal amide; synthetic construct; SITE 2: note = 2-Aminoisobutyric Acid; SITE 10: note = 3-(4-Pyridyl)-L-alanine; SITE 12: note = L-ornithine; SITE 13: note = alpha-methyl-leucine; SITE 17: note = Lysine is chemically modified through conjugation of the epsilon-amino group of the Lysine side chain with (2-[2-(2-
B13: Example 977 (peptide)
chain: YXQGTFTSDXSQXLDXKAQXAFIEYLIAGGPSSGEPPPSGSE
modifications: synthetic construct; SITE 2: note = 2-Aminoisobutyric Acid; SITE 10: note = 3-(4-Pyridyl)-L-alanine; SITE 13: note = alpha-methyl-leucine; SITE 16: note = L-ornithine; SITE 17: note = Lysine is chemically modified through conjugation of the epsilon-amino group of the Lysine side chain with (gamma-Gl)
B14: Example 980 (peptide)
chain: YXQGTFTSDXSXXLDKKAQXAFIEYLIAGGPSSGEPPPSGTE
modifications: synthetic construct; SITE 2: note = 2-Aminoisobutyric Acid; SITE 10: note = 3-(4-Pyridyl)-L-alanine; SITE 12: note = L-ornithine; SITE 13: note = alpha-methyl-leucine; SITE 17: note = Lysine is chemically modified through conjugation of the epsilon-amino group of the Lysine side chain with (gamma-Gl)
B15: Example 990 (peptide)
chain: YXQGTFTSDXSXXLDKKAQXAFIEXLIEXGPSSGEPPPSGSE
modifications: Aib, 4Pal, Me4Pal, Orn, alpha-methyl-Leu, lipidated Lys, amide; synthetic construct; SITE 2: note = 2-Aminoisobutyric Acid; SITE 10: note = 3-(4-Pyridyl)-L-alanine; SITE 12: note = L-ornithine; SITE 13: note = alpha-methyl-leucine; SITE 17: note = Lysine is chemically modified through conjugation of the epsilon-amino group of the Lysine side chain with (gamma-Gl)

Assays:
Assay in all cases: cell-based or functional assay
hGLP-1R = hGLP-1R (Homo sapiens, UniProt P43220)
[1] = molecular target: T1, human GIP receptor (human)
[2] = molecular target: human glucagon receptor (human) (UniProt P47871)
Sequence of human glucagon receptor (human) (P47871 26-477): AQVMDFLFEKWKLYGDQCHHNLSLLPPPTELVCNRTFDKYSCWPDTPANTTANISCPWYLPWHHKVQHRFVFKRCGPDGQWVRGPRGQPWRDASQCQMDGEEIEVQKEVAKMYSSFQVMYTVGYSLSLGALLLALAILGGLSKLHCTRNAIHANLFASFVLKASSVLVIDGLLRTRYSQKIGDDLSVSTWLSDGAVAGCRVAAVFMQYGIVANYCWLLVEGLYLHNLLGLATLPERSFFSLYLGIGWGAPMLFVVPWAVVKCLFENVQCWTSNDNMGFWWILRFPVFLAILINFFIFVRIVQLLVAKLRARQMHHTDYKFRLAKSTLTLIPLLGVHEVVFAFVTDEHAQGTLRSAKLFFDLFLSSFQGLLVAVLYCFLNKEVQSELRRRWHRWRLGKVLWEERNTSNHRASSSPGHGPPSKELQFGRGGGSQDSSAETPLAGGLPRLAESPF

Sequence of hGLP-1R (P43220 24-463): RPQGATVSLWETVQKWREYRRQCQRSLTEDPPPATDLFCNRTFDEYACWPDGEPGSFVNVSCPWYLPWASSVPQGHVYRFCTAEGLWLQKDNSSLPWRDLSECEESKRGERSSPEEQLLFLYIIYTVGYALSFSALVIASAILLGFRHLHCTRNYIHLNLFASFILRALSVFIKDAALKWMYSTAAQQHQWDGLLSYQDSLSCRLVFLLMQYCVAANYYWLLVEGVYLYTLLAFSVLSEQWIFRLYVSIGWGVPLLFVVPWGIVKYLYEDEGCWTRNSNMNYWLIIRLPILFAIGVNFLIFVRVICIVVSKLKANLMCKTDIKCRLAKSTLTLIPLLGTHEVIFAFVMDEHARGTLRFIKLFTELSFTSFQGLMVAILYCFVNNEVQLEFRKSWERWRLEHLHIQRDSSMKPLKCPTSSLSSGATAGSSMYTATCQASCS

Binder | cAMP Rel EC50, nM (1% HSA) (hGLP-1R) [nM] | cAMP Rel EC50, nM (1% HSA) [1] [nM] | cAMP Rel EC50, nM (1% HSA) [2] [nM] | Relative cAMP EC50 (hGLP-1R) [nM] | Relative cAMP EC50 [1] [nM] | Relative cAMP EC50 [2] [nM]
B1 | 395 | 30.8 | 1050 |  |  | 
B2 | 1210 | 14.5 | 1860 |  |  | 
B3 | 1140 | 60.1 | 2270 |  |  | 
B4 | 4810 | 11.2 | 1160 |  |  | 
B5 | 330 | 21.1 | 477 | 4.45 | 0.243 | 3.7
B6 | 217 | 24 | 374 | 2.93 | 0.34 | 5.41
B7 | 327 | 30.4 | 660 |  |  | 
B8 | 283 | 80.9 | 870 |  |  | 
B9 | 1810 | 30.1 | 374 |  |  | 
B10 | 257 | 35.9 | 581 |  |  | 
B11 | 160 | 23.5 | 409 | 2.07 | 0.232 | 4.5
B12 | 743 | 11.8 | 320 | 9.5 | 0.198 | 2.52
B13 | 159 | 23 | 839 | 1.1 | 0.189 | 7.18
B14 | 290 | 15.4 | 239 | 2.26 | 0.18 | 2.41
B15 | 557 | 9.87 | 276 | 5.78 | 0.115 | 2.47
